Legend:
[1] = molecular target: S. cerevisiae cytochrome c oxidase (complex IV), CIV (S. cerevisiae (endogenous in strain BY 4741)) (UniProt P00427)
[2] = molecular target: S. cerevisiae CIII2CIV1/2 respiratory supercomplex (S. cerevisiae (endogenous in strain BY 4741)) (UniProt P07143); experiment: cryo-EM structure
[3] = molecular target: S. cerevisiae cytochrome c oxidase (complex IV), CIV (S. cerevisiae (endogenous in strain BY 4741)) (UniProt P00427); experiment: cryo-EM structure

UniProt P00427, sequence (P00427 whole entry, looked up, one chain of several): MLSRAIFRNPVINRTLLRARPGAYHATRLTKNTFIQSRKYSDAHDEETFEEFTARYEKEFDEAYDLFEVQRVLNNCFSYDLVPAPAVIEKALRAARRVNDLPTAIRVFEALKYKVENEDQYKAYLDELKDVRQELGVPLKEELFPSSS
UniProt P07143, sequence (P07143 whole entry, looked up, one chain of several): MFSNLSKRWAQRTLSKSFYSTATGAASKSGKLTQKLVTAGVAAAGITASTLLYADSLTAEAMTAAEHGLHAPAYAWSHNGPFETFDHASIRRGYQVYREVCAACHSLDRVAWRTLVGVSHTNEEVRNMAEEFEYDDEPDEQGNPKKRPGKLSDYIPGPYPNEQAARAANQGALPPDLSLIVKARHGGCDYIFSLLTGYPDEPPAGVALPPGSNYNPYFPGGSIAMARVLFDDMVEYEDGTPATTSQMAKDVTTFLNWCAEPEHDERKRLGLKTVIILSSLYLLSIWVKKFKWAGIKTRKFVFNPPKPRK

S. cerevisiae cytochrome c (isoform-1 cyt. c) (from UniProt P00044 1-109) (natural protein)
cyt. c:O2 oxidoreductase activity of isolated CIV at a cyt. c:CIV ratio of one [1]: 3 e^-/s
stoichiometry N [2]: 1
cyt. c occupancy from integrated density (map with cyt. c at CIV) [3]: 1
percent of particle images with cyt. c bound at CIV [3]: 33%
